From paper PMC2888445 (The Journal of Biological Chemistry, 2010)

Target: T1, GST-AC8 1–77 (rat, UniProt P40146 1-77)
T1 sequence (looked up): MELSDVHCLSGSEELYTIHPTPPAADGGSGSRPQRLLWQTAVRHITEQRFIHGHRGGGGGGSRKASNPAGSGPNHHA
Experiment: pull-down

B1: AKAP150-HA (natural protein, rat, UniProt P24587 1-714, looked up)
chain: METSVSEIQIETKDEKRPEAASPQKERQERKTATLCFKRRKKVNKKKAKAGSKTAEETEKHAPEAGGSGQRQPAGAWASIKRLVTHRKPSESAEKQKPSEAEMQPEDGALPKKKTKSKLKIPCIRFSRGAKRSRPSKLTEDSGYVRVQGEADDLEIKAQIQPDEQATQAKSTQGLQEDVIVRDGKEIQESHISNNVISGEHVIGIELELEKESSALRMRTPGSEKEAKVILVKQGVQVQEASVLENSAADSPQPVTSTAPLSPATTHQLGLEEPSDSIRESAPSGKDDGRRKTAAEEKKSGETALGQAEEASSVSQADKSVLSQAEEATVGHTEEATVIQAQSQAKEGKLSQAEEATVAQAKETVLSQAEEVKLSQIEEPAISQAKKATVGQAKEAYVSQAEEAIVGHTEKATMGQAEEATVGHIEKTTVGQAEEATVGQAEEATVGQAEEATVGQAEEATVGQAEEATVGQAGEATVSHIEKTTVGQAEEAIVGQAEEATVGQAEEATVGQAEEATVGQAEEATVDQAEEATVGQAEEATVGQAGEAAVGQAEEAIVAQAEEATVGQAGEATVGQAEKATVGQAEEPIVGQAEETVLRHASDLKVNGVDAEKPRSEESKRMEPIAIIITDTEISEFDVKKSKNVPKQFLISMENEQVGVFANDSDFEGRTSEQYETLLIETASSLVKNAIELSVEQLVNEMVSEDNQINTLFQ
Question: B1 was tested. Which “fold interaction against GST-AC8 73–179 (densitometry, HA band relative to GST)” value did it give?
Answer: The value was 1.6 fold.
